The text below walks through data of patent US20210077592A1, “COMPOSITION TO PREVENT INTESTINAL DAMAGE” (FUSION FARM S.R.L. SEMPLIFICATA, priority 2017, published 2021).

Data set [1] can be described thus: Solubility of lactoferrin in aqueous solution in the presence of sodium butyrate. The conditions noted are these: with or without added sodium butyrate. Type of data set: physicochemical. The method, then:
Various solutions, with increasing ratios between sodium butyrate amount and lactoferrin amount, were prepared to verify the possible effect of sodium butyrate addition on lactoferrin solubility in aqueous solution.
In particular, ten different mixtures were prepared, whose weight rations are set out in the following Table 1, and the presence of undissolved body of lactoferrin was observed as a function of the increasing amount of sodium butyrate added to the solution.

For data set [2], the system named is Caco-2 cells. The experiment in a line: Lucifer Yellow (LY) assay of paracellular permeability in Caco-2 intestinal damage model. It is filed as cell-based. The method, then:
A protocol was developed based on Caco-2 cell inserts model (CACOREADY™ cells, lot no. 24 676 101716 and no. 24 680 111416, Readycell manufacturer) consisting in two steps:
1. Induction of epithelial damage (40 h incubation in glutamine free medium followed by stress induced by 60 mM ethanol for 4 h)
2. Evaluation of the single products first, and then applied in combination during stress induced by the absence of glutamine (60 h), and with subsequent stress induced by ethanol, to evaluate the efficacy in preventing damage. […]
Cells without damage induction (NC=without damage) and with damage induction (PC) were evaluated with the Lucifer Yellow (LY) assay, which verifies the integrity of the cellular junctions in presence of the test substance. […]
According to the experimental protocol, to evaluate the efficacy of the composition of the invention in damage prevention, sodium butyrate (2 mM concentration) and lactoferrin (400 μg/ml concentration), either alone or in combination, were applied on Caco-2 cells during stress induced by absence of glutamine, increasing the time of said deprivation, with respect to the conditions tested during the development of the model, and therefore of stress induction, to 60 hours, to make more evident differences in cells behavior in the different treatment situations. […] The parameters were evaluated at the end. […]
(Caco-2 cells form a polarised layer with tight junctions and transporters.)

The subject of data set [3] is Caco-2 cells. The experiment in a line: Electron Microscopy (SEM) of microvilli of Caco-2 cells after damage induction. It is filed as cell-based. The conditions noted are these: pretreatment 60 h without glutamine, then 60 mM ethanol 4 h, 750x-10000x. As to the method: The same cells without damage induction (NC) and with damage induction (PC), as indicated above, were finally evaluated by Electron Microscopy (SEM) at different magnifications.
(§1) According to the experimental protocol, to evaluate the efficacy of the composition of the invention in damage prevention, sodium butyrate (2 mM concentration) and lactoferrin (400 μg/ml concentration), either alone or in combination, were applied on Caco-2 cells during stress induced by absence of glutamine, increasing the time of said deprivation, with respect to the conditions tested during the development of the model, and therefore of stress induction, to 60 hours, to make more evident differences in cells behavior in the different treatment situations. At the end of 60 hours, the products were removed, and damage was induced for 4 h with 60 mM ethanol. The parameters were evaluated at the end.
The same cells were finally evaluated also by Electron Microscopy SEM, at various magnifications.

Data set [4] has as its system Occludin and Zonula Occludens in Caco-2 cells. The experiment in a line: Fluorescence immunolabeling of Occludin and Zonula Occludens in Caco-2 cells after damage induction. It is filed as cell-based. The conditions noted are these: pretreatment 60 h without glutamine, then 60 mM ethanol 4 h. As to the method:
As it can be seen by FIG. 1, the damage induced an increase in permeability. The same cells without damage induction (NC) and with damage induction (PC), as indicated above, were further evaluated by fluorescence immunolabeling of Occludina and Zonula Occludens (proteins present in the intestinal membrane intracellular junctions).
as §1
To confirm the observed behavior, an evaluation using fluorescence immunolabeling of Occludin and Zonula Occludens was also performed.

B1: lactoferrin (protein, UniProt P02788 20-710, looked up)
Lactotransferrin: GRRRSVQWCAVSQPEATKCFQWQRNMRKVRGPPVSCIKRDSPIQCIQAIAENRADAVTLDGGFIYEAGLAPYKLRPVAAEVYGTERQPRTHYYAVAVVKKGGSFQLNELQGLKSCHTGLRRTAGWNVPIGTLRPFLNWTGPPEPIEAAVARFFSASCVPGADKGQFPNLCRLCAGTGENKCAFSSQEPYFSYSGAFKCLRDGAGDVAFIRESTVFEDLSDEAERDEYELLCPDNTRKPVDKFKDCHLARVPSHAVVARSVNGKEDAIWNLLRQAQEKFGKDKSPKFQLFGSPSGQKDLLFKDSAIGFSRVPPRIDSGLYLGSGYFTAIQNLRKSEEEVAARRARVVWCAVGEQELRKCNQWSGLSEGSVTCSSASTTEDCIALVLKGEADAMSLDGGYVYTAGKCGLVPVLAENYKSQQSSDPDPNCVDRPVEGYLAVAVVRRSDTSLTWNSVKGKKSCHTAVDRTAGWNIPMGLLFNQTGSCKFDEYFSQSCAPGSDPRSNLCALCIGDEQGENKCVPNSNERYYGYTGAFRCLAENAGDVAFVKDVTVLQNTDGNNNEAWAKDLKLADFALLCLDGKRKPVTEARSCHLAMAPNHAVVSRMDKVERLKQVLLHQQAKFGRNGSDCPDKFCLFQSETKNLLFNDNTECLARLHGKTTYEKYLGPQYVAGITNLKKCSTSPLLEACEFLRK
notes: antimicrobial and iron-carrying glycoprotein; B=400 μg/ml lactoferrin
For B1, the “dissolution of lactoferrin in aqueous solution, result in words” value in data set [1] is “completely undissolved body in suspension”. For the same molecule, the “reduction in LY flux with respect to positive control (PC)” value in the data set with Caco-2 cells [2] (product applied during 60 h glutamine deprivation, then 60 mM ethanol 4 h, 2 mM sodium butyrate and/or 400 μg/ml lactoferrin) was “about 12%”. Further, the “permeability (LY), result in words” value with Caco-2 cells [2] (treatment at the same time as damage induction) is listed as “not substantially changed compared to the negative control”. Further, in the data set on Caco-2 cells [3], the “effect on microvilli / villous atrophy by SEM, result in words” value is listed as “positive effect on the villi functionality”. Besides, the “fluorescence intensity / expression of tight junction proteins (Occludin, Zonula Occludens), result in words” value in data set [4] is reported as “good level of expression of the tight junctions' markers”.
